{
  "source": "the nanobody polyreactivity screen of Harvey et al. (2022)",
  "data": [
    {"assay": "yeast display, Sf9 membrane polyspecificity reagent, FACS + sequencing; frameworks hold sequencing errors", "in_short": "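A nanobody's polyreactivity label depends on the gate it was sorted from. Yeast display cells were stained with 10% biotinylated, detergent-solubilized Sf9 membrane reagent for 1 hour at 4 °C, enriched on streptavidin microbeads and sorted by FACS. The low and high (top ~1%) gates were set on anti-HA fluorescence for expression and streptavidin fluorescence for reagent binding.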", "values": [
      {"sequence": "QVQLVESGGGLVQAGGSLSLSCAASGRTFIRNAMGWYRQAPRKEREVVAAINSCGITNYADSVNGRFTISRDNAKNTVDLQMNSLKPEDTAVYYCANTFQYYWFSLYDYWGQGTQVTVSS", "polyreactivity (PSR sort gate)": "low polyreactivity"},
      {"sequence": "QVQLVESGAGLVQAGGSLRLSCAASGSISRYYAMGWYRQAPGKERELVAAISVSGGSTYYADSVKGRFTISRDNAKNTVYLQMNSLKPEHTAVYYCKKVRLSDYDWGQGTQVTVSS", "polyreactivity (PSR sort gate)": "high polyreactivity"},
      {"sequence": "QVQHVESGGGLVQPGGSLRLSCAASGNAMGWYRQAPGKERELVASINRSGGRTYYADSVKGSYTISRDNAKNTVYLQMNSLKPEDTAVYYCAARPHYDSDYWGQGTQVTVSS", "polyreactivity (PSR sort gate)": "low polyreactivity"},
      {"sequence": "QVQLVESGGGLFQAGGSLRLSSAASGRIIRRNAMGWYRQAPGKEWDLDAAITSSGGNTYYADSVKGRFTISRDNAKNTVYLQMNSLKPEDSAVYYCATYPGNWDLDYWGQGTQVTVSS", "polyreactivity (PSR sort gate)": "high polyreactivity"},
      {"sequence": "QVQLVESGGGLVQAGGSLRLSCADSGSIFYTYAMGWYRPAPGKERELVAAITRSGGSTNYADSVKGRFTITRDNAKYTVYLQMNSLKPEDNAVYYCAAVFNWAPYFYYYWGQRTQVTVSS", "polyreactivity (PSR sort gate)": "high polyreactivity"},
      {"sequence": "QVQLVESGGGLVQAGGTLRLSCAASGSIFRLNAMGWYRQPPGKERELVAAITSGGRTNYADSVKGRFTISRDNAKNTDYLQMNSLKPEDTAVYYCNARATAYGWRGDAGFEFDYWGQGTQVTVSS", "polyreactivity (PSR sort gate)": "low polyreactivity"},
      {"sequence": "QVQLVESGGGLVQAGGSLRLSCAASGSTFPQYAMGWYRQAPGKERELVAAISFSGGSTYYADSVKGRFTISRDNAKNTVYLQMNSLKPEDTAVYYCAAELGLAQYYYWGQGTQVTVSS", "polyreactivity (PSR sort gate)": "low polyreactivity"},
      {"sequence": "QVQLVESGGGLVQAGGSLRLSCAASGSIFAGYAMGWYRQAPGKERELVAAISRRGGRTYYADSVKGRFTISRDNAKNTVYLQMNSLKPEDTAVYYCARRVDYISSKYGYWGQGTQVTVSS", "polyreactivity (PSR sort gate)": "high polyreactivity"},
      {"sequence": "QVQLEESGGGLVHAGGSLRLSCAASGSTFRPYAMGWYRQAPGKERELVAAIRKIGGRTYYADSVKGRFTISRDNAKNTVYLQMNSLKPEDTAVYYCNKRIGGGVHAYNYWGQGTQVTVSS", "polyreactivity (PSR sort gate)": "low polyreactivity"},
      {"sequence": "QVQLVESGGGLVQAGGSLRLSCAASGSIFHRNTMGWYRQAPGKEREFVAGISWGGGRTYYADSVKGRFTISRDNAKNTVYLQMNSLKPEETAVYYCAAKTGGGGRLSTVYYWGQGTQVTLSS", "polyreactivity (PSR sort gate)": "high polyreactivity"},
      {"sequence": "QVPLVESGGGLVQAGGSLRLSCAASGSTFTRYAMGWYRQAPGKEREFVAGISSRGSRTYYADSVKGRFTISRDNAKNTVYLQMNSLKPEDTAVYYCAVSGNHVSPPYGYWGQGTQLTVSS", "polyreactivity (PSR sort gate)": "high polyreactivity"},
      {"sequence": "QVQLVESGGGLVQAGGSLRLSCAASGIIFFTYAMGWYRQATGKERELVAAISSGGSTTYADSVKGRFTISRDNAKNTVYLQMNSLKPEDTAVYYCAAGTQAHDYVVRPIDMDYWGQGTQVTVSS", "polyreactivity (PSR sort gate)": "low polyreactivity"},
      {"sequence": "QVQLVESGGGLVQAGGSLRLTCAASGNNYLDNAMGWYRQAPGKERELVASITRSGSRTYYADSVKGRFTISRDNAKNTGYFQMNSLKPEDTAVFYCNAGVNERQYDYWGLGTQVTVSS", "polyreactivity (PSR sort gate)": "high polyreactivity"},
      {"sequence": "QVQLVESGGGLVQAGGSLRLSCAASGRIFVDNAMGWYRQAPGKERELVAAITGGGSTYADSVKGRFTISRDNAKNTVYLQMNSLKPEDTAVYYCAADLWSVPFTVYTFGIFYYWGQGTQVTVSS", "polyreactivity (PSR sort gate)": "low polyreactivity"},
      {"sequence": "QVQLVESGGGLVQAGGSLRLSCAASGRIFDIYAMGWYRQAPGKERELVAGITSVGSTNYADSVKGRFTISRDNEKNTVYLQMNSLKPEDTAVYYCAAKAYFSTSPYHREHDSWGQGTQVTVSS", "polyreactivity (PSR sort gate)": "low polyreactivity"},
      {"sequence": "QVQLVESGGGLVQAGGSLRLSCAASGSIFGYYAMGWYRQAPGKERELVAAISYSGGSTYYADSVKGRFTISRDNAKNTVYVQMNSLKPEDTAVYYCAARYASTPYARFGYWGQGSQVTVSS", "polyreactivity (PSR sort gate)": "high polyreactivity"},
      {"sequence": "QVQLVESGGGLVQEVGSLRLSCAATGRTFYQNVMGWSRQARGKERELVAAISQRGGRTYYADSVKGRFTISRDNAKITVYLQMNSLKPEDTEVYYCNADSTVWPYDYWGQGTQVTVSS", "polyreactivity (PSR sort gate)": "low polyreactivity"},
      {"sequence": "QVKLVESGGGLVQAGGSLRLSCAASGGTFTLYAMGWYRQAPGKERELVAAISTSGGSTYYADSVKGRFTISRDNAKNTVYLQMNSLKPEDTAVYYCAAVTRYAGRIRYGYWGQGTQVTVSS", "polyreactivity (PSR sort gate)": "high polyreactivity"},
      {"sequence": "QVQLVESGGGLVQAGGSLRLSCAASGRTFVPYAMGWYRQAPGKEREFVAAISSRVGSTYYADSVKGRFTISRDNAKNTVYLQRNSLKPEDTAVYYCNAPFKPAGFYSAWKYDYWGQGTQVTVSS", "polyreactivity (PSR sort gate)": "low polyreactivity"},
      {"sequence": "QVQLVESGGGLVQAGGSLRLSCAASGITIFRYALGWSRQAPGKERELVAAISSSGGSTYYADSVKGRFTISRDNAKNTVYLQMNSLKPEDTAVYYCAAAHGYRYYWGQGTQVTVSS", "polyreactivity (PSR sort gate)": "high polyreactivity"},
      {"sequence": "QVQLVESGGGLVQAGGSHRLSCAASGFTFVNNALGWYRQPPGKEREFVAPISSDGGSTYYADSVKGRFTMSRDNAKNTVYLQMNSLKPEDTAVYYCAKVYPYRTYDTSYYHYHYDSWGQGTQVTVSS", "polyreactivity (PSR sort gate)": "low polyreactivity"},
      {"sequence": "QVQLVESGGGLVQAGGSLRLSCAASGLTFDYYAMGWYRQAPGKERELVAAISASCSSTYYADSVKGRFTISRDNAKNTVYLQMNSLKPEDTAVYYCAAVTKSSVPGSRYDYWGQGTQVTVSS", "polyreactivity (PSR sort gate)": "high polyreactivity"},
      {"sequence": "HVQLQESGGGLVQAGGSLRLSCAASGSIFQATYMGWYRQAPGKEREFVASITYGSITKYADSVNGRFTIGRDNAKDTLYLQMNSLKPEDTAVYYCAVDRHYIPAFHYWGQGTQVTVSS", "polyreactivity (PSR sort gate)": "low polyreactivity"},
      {"sequence": "QVQLVESGGGLVQAGGSLRLSCDASGGTFYRNAMGWYRQAHGKERELVAVISKRGTSTYYADSVKGRFTISRDNAKNTVYLQMNSLKPEDTAVYYCATVYYHLSPNRPYGYWGQGTQVTLSS", "polyreactivity (PSR sort gate)": "high polyreactivity"},
      {"sequence": "QVQLVESGGGLVQAGGSLRLSCAPSGSTFYKNAMGWYRQAPWKERELVAGISRRGGRTYYADSVKGRFSISRDNAKNTVYLQMNSLKPEDTAVYYCNARLLSGPGYDYWGQGTQVTVSS", "polyreactivity (PSR sort gate)": "low polyreactivity"},
      {"sequence": "QVQLVESGGGLVQAGVSLRLSCAASGSIFYYYAMGWYRPAPGKERELVAAITRSGGSTYYADSVKGRFTISRDNAKNTVYLQMNSLKPEDTAVYYCAKDAHAYRDLDYWGQGTQVTVSS", "polyreactivity (PSR sort gate)": "low polyreactivity"},
      {"sequence": "QVQLVESGGGLVQAGGSLRLSCAASGLTFRYYAMVWYRQAPGKERELVATITRAGRTNYADSVKGRFTISRDNAKNTVYLQMNSLKPEDTAVYYCATKRVLTGFDSWGQGTQVTVSS", "polyreactivity (PSR sort gate)": "high polyreactivity"},
      {"sequence": "QVQLVESGGGLVQAGGSLRLSCAASGRTFTGYAMGWYRQAPGKERELVASISGSGGRTNYADSVKGRFTISRDNAKNTVYLQMNSLKPEDTAVYYCAARYRTWFGYWGQGTQVTVSS", "polyreactivity (PSR sort gate)": "high polyreactivity"},
      {"sequence": "QVQLVESGGGLVQAGGSLRLSCAASGRILAYYVMGWYRQAPGKERELVAGINWSGGSTYYADSVKGRFTISRDNAKHTFYLQMNSLKPEDTGVYNCAARFVGVRDGYYYWGQGTQVTVSS", "polyreactivity (PSR sort gate)": "high polyreactivity"},
      {"sequence": "QVQLVVSGGGLVQAGGSLRLSWAASGSIFERYAMGLYRQAPGKERELVARISRSGTSTYYADSVKGRFTISRDNAKNSVYDQMNSLQPEDTAVYYCNATGSRYSGYQRCHYWRYDYLGQGTQVTVSS", "polyreactivity (PSR sort gate)": "high polyreactivity"},
      {"sequence": "QVQLVESGGGLVQAGGSLRLSCAASGSTSQPYAMGWYRQAPGKERELVASITNGGITYYADSVKGRFTISRDNAKNTVYLQMNSLKPEDTAVYYCNADNVFEGYDRRSARASYRYYYWGQGTQVTVSS", "polyreactivity (PSR sort gate)": "low polyreactivity"},
      {"sequence": "QVQLVESGGGLVQAGGSLRLSCAASGRTFGRNAMGWYRPAPGKERELVATITRRGGSTYYADSVKGRFTISRDNAKNTVYLQMYSLKPEDTAVYYCNAGIWLGSFRQRFYYWGQGTQVTVSS", "polyreactivity (PSR sort gate)": "high polyreactivity"},
      {"sequence": "QVQLVESGGGLVQARGSLRLSCAASGFTFPSYAMGWYRQAPGKERELVARITWIGGRTYYADSVKGRFTISRDNAKNTVYLQMNSLKPEDSAVYYCAARIGGGPVKYDYWGQGTQVTVSS", "polyreactivity (PSR sort gate)": "high polyreactivity"},
      {"sequence": "QVQLVESGGGLLQAGGSLSLSSAASGITCDLYDMGWYRQAPGKERELVAAITDAHSTYYADSVKGRFTNSRDYAKNTVYLQMNSLKPEDTAVYYCAADWYLYLDDKYDYWGQGTQVTVSS", "polyreactivity (PSR sort gate)": "low polyreactivity"},
      {"sequence": "QVQLVESGGGLVQAGGSLRLSCAASGRIFDRNAMGWYRQAPGKERELVAAIRRGGSTNYADSVKGRFTISRDNAKNTVYLQMNSLKPEDTAVYYCNTVYSEYYIAYDYWGQGTQVTVSS", "polyreactivity (PSR sort gate)": "high polyreactivity"},
      {"sequence": "QVQLVESGGGLVQAGGSLRLSCAASGRILAYYAMGWYRQAPGKERELVARISGSGTSTYYADSVKGRFTISRDNAKNTVYLQMNSLKPEDTGVYYCAATYYRGGRSNGPAWWHEYWGQGTQVTVSS", "polyreactivity (PSR sort gate)": "high polyreactivity"},
      {"sequence": "QVQLVESGGGLVQAGGSLRLSCAASGRIFQGYAMGWYRQAPGKERELVAAIRTGGSTNYADSVKGRFTISRDNAKNTVYLQMNSLKPEDTAVYYCNAVGQLYFYFPRGDYWGQGTQVTVSS", "polyreactivity (PSR sort gate)": "low polyreactivity"},
      {"sequence": "QVQLVESGGGLVQAGGSHRLSCAASGRINYNYAMGWYRQAPGKERELVAAISGSGGSTYYADSVKARFTISRDNAKNTVYLQMNSLKPEDTAVYYCSTSGPQYDSRNFDYWGQGTQVNVSS", "polyreactivity (PSR sort gate)": "low polyreactivity"},
      {"sequence": "QVQLVESGGGLVQAGGSLRLSCAASGRTFGFYAMGWYRQAPGKERELVAGINNRGSGTYYADSVKGRFTISRDNAKNTVYLLMNSLKPEDTAVYYCAAGRRAKSRTWVNIRYDYWGQGTQVTVST", "polyreactivity (PSR sort gate)": "high polyreactivity"},
      {"sequence": "QVQLVESGGGLVQAGGSLRLSCAASGIIFTGNAMGWYRQAPGKERELVAAITSGDTTNYADSVKGRFTISRDNAKNTVYLQMNSLKPEDTAVYFCAIELQVRQAGDYWGQGTQVTVSS", "polyreactivity (PSR sort gate)": "low polyreactivity"},
      {"sequence": "QVQLVESGGGVVQAGGSLRLSCAASGSTIYRYAMGWYRQAPGKEREFVPAITRTTARTYYADSVKGRFTFSRDNAKNTVYLQMNSLKPEDTAVYYCAADLYSWTWSGFRQYDSWGQGTQVTVSS", "polyreactivity (PSR sort gate)": "high polyreactivity"}
    ]}
  ]
}
